To fix the notation:
B4: SCBT anti-lefty antibody (Santa Cruz Biotechnology, catalog number sc-365845, mAb D6) (antibody, mouse IgG1, kappa)
heavy: QVQLQQSGAELVRPGASVKLSCKALGYTFADYEMHWVRQTPVHGLEWTGSIHPGSGGTAYDQRFKGKATLTADKSSSTAYMELSSLTSEDSAVYYCTFYDLDYWGQGTTLTVSSAKTTPPSVYPLAPGSAAQTNSMVTLGCLVKGYFPEPVTVTWNSGSLSSGVHTFPAVLQSDLYTLSSSVTVPSSTWPSETVTCNVAHPASSTKVDKKIVPRDCGCKPCICTVPEVSSVFIFPPKPKDVLTITLTPKVTCVVVDISKDDPEVQFSWFVDDVEVHTAQTQPREEQFNSTFRSVSELPIMHQDWLNGKEFKCRVNSAAFPAPIEKTISKTKGRPKAPQVYTIPPPKEQMAKDKVSLTCMITDFFPEDITVEWQWNGQPAENYKNTQPIMDTDGSYFVYSKLNVQKSNWEAGNTFTCSVLHEGLHNHHTEKSLSHSPGK
light: DILMTQAAPSISVTPGESVSISCRSSESLLHSNGNTYLYWFLQRPGQSPQLLIYRKSNLASGVPDRFSGSGSGTAFTLRISRVEAEDVGVYYCMQQLEYPLTFGGGTKLELKRADAAPTVSIFPPSSEQLTSGGASVVCFLNNFYPKDINVKWKIDGSERQNGVLNSWTDQDSKDSTYSMSSTLTLTKDEYERHNSYTCEATHKTSTSPIVKSFNRNEC
notes: The ELISA protocol prints the catalog number as sc-36584, the proliferation protocols as sc-365845; also called SCBT antibody; SCBT Ab

The target of assay [1] is T1, BMPR2 on human breast cancer cells (PDX tumor cells, MDA-MB-231) (human, UniProt Q13873 27-1038).
T1 construct: whole, on cells
T1 sequence (looked up): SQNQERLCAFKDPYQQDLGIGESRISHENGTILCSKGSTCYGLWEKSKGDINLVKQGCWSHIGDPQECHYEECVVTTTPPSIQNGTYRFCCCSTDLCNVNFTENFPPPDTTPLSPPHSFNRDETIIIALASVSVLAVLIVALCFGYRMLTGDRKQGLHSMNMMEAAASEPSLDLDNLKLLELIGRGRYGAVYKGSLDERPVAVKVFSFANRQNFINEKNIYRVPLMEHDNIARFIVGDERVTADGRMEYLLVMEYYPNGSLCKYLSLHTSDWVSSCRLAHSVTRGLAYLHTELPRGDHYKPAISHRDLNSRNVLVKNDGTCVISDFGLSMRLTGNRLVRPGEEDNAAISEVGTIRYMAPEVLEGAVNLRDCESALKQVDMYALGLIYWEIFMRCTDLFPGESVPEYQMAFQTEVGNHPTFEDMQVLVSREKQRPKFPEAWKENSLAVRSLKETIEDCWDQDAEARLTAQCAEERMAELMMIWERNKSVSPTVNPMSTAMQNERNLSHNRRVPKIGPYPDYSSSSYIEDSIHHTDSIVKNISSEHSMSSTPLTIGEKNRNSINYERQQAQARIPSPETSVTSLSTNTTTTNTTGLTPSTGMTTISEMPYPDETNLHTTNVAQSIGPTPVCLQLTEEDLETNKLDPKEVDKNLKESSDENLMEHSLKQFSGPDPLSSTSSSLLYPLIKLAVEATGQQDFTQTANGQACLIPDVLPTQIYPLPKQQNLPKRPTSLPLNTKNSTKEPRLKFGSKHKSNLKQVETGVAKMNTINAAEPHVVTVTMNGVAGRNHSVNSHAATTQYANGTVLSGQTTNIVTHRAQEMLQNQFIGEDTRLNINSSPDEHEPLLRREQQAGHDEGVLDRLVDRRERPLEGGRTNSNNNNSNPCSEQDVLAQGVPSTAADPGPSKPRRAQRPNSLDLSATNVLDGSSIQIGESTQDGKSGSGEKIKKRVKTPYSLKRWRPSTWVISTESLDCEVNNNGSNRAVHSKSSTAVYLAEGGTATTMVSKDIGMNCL
Briefly: proximity ligation assay on sorted PDX cells.

Assay [2] deals with T2, BMPR2 (BMP receptor, in mouse fibroblasts and mouse mammary cells) (mouse, UniProt O35607 27-1038).
T2 construct: whole, on cells; For the co-IP it came from cell lysate; also called BMP Type II receptor
T2 sequence (looked up): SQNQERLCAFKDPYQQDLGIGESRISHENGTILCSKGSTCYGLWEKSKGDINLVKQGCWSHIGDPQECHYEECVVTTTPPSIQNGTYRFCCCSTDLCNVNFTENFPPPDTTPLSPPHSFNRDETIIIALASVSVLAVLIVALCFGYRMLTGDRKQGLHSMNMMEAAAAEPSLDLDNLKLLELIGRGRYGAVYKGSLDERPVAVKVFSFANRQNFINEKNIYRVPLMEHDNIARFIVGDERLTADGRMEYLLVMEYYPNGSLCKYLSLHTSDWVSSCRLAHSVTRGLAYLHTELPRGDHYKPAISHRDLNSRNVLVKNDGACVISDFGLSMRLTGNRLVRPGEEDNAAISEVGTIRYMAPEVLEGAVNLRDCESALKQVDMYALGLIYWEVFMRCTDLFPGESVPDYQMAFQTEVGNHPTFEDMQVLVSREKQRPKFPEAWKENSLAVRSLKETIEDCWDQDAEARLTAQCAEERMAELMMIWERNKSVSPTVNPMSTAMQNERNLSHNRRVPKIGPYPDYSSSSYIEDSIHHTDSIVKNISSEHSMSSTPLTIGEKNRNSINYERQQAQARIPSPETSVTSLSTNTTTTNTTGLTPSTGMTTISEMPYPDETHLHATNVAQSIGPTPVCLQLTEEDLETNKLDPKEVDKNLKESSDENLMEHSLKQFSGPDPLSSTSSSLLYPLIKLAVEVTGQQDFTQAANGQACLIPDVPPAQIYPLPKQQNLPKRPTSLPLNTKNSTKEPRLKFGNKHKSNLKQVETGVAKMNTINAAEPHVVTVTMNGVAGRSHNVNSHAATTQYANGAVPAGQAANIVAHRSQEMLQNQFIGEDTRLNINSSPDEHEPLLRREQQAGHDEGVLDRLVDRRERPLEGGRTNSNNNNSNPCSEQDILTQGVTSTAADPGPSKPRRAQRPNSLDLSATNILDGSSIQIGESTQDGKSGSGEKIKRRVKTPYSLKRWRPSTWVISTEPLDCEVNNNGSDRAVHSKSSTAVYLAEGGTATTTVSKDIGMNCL
Nature of the assay: proximity ligation assay in fibroblasts.

The target of assay [3] is B4. Briefly: competition ELISA: the peptide is added to the antibody on coated LEFTY proteins. (In general: ELISA stands for enzyme-linked immunosorbent assay.)
In another assay the target is T3, LRP6 (UniProt O88572 20-1613, limits assumed).
T3 construct: whole, on cells
Briefly: proximity ligation assay in fibroblasts.

In assay [4] the target is T4, 1189 IMM (human LEFTY1-Rabbit Fc fusion protein) (human).
T4 construct: also called Lefty IMM; Lefty Imm
T4 chain: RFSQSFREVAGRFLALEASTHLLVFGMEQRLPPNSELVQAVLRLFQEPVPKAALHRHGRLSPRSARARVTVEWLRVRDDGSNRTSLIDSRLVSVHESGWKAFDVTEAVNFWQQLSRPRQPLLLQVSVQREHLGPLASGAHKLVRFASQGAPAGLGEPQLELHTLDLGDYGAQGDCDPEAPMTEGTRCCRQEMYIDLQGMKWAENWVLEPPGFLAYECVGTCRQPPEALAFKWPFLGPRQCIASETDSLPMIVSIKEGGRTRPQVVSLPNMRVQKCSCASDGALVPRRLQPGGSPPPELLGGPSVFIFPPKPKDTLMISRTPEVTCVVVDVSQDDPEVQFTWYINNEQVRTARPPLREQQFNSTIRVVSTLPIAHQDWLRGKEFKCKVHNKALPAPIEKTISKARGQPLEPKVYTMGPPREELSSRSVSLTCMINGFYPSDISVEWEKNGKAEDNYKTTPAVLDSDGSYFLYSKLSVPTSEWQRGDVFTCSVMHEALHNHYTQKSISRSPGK
Briefly: ELISA, plate coated with 5 ug/ml protein, 5 ug/ml primary antibody, absorbance at 450 nm.

Assay [5] concerns the target T5, recombinant human LEFTY2 protein (R&D Systems, catalog number 746-LF-025) (human, UniProt O00292 78-366, limits assumed).
T5 construct: also called Lefty R&D; rhLefty2 protein
T5 sequence (looked up): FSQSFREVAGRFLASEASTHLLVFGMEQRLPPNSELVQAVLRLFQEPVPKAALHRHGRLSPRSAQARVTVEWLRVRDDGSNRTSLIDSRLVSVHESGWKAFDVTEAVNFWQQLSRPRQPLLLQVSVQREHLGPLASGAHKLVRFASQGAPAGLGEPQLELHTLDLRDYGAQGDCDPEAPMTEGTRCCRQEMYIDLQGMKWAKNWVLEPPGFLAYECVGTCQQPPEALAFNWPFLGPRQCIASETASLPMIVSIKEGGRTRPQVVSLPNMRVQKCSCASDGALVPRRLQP
Described as above.

The target of assay [6] is T6, 1189 SCR1 (human LEFTY1-human Fc fusion protein) (human).
T6 construct: also called Lefty SCR; Lefty Scr
T6 chain: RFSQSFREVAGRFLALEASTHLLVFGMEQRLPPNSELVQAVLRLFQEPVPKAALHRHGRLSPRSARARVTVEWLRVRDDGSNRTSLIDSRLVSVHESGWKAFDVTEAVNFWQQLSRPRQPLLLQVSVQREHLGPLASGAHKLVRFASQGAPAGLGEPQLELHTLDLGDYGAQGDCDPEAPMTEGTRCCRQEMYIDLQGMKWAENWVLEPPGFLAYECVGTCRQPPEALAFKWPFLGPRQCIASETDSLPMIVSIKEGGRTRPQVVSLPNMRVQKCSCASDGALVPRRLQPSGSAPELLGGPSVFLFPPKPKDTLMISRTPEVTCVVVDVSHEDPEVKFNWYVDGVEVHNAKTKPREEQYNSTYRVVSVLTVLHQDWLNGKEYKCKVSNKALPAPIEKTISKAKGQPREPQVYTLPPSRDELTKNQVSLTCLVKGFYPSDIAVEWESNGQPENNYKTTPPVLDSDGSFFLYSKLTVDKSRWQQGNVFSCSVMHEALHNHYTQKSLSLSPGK
The description is as above.

This note sets out measurements from patent publication US20240368259A1 (ONENA MEDICINES S L, published 2024).

T3 sequence (O88572 20-1613 limits assumed): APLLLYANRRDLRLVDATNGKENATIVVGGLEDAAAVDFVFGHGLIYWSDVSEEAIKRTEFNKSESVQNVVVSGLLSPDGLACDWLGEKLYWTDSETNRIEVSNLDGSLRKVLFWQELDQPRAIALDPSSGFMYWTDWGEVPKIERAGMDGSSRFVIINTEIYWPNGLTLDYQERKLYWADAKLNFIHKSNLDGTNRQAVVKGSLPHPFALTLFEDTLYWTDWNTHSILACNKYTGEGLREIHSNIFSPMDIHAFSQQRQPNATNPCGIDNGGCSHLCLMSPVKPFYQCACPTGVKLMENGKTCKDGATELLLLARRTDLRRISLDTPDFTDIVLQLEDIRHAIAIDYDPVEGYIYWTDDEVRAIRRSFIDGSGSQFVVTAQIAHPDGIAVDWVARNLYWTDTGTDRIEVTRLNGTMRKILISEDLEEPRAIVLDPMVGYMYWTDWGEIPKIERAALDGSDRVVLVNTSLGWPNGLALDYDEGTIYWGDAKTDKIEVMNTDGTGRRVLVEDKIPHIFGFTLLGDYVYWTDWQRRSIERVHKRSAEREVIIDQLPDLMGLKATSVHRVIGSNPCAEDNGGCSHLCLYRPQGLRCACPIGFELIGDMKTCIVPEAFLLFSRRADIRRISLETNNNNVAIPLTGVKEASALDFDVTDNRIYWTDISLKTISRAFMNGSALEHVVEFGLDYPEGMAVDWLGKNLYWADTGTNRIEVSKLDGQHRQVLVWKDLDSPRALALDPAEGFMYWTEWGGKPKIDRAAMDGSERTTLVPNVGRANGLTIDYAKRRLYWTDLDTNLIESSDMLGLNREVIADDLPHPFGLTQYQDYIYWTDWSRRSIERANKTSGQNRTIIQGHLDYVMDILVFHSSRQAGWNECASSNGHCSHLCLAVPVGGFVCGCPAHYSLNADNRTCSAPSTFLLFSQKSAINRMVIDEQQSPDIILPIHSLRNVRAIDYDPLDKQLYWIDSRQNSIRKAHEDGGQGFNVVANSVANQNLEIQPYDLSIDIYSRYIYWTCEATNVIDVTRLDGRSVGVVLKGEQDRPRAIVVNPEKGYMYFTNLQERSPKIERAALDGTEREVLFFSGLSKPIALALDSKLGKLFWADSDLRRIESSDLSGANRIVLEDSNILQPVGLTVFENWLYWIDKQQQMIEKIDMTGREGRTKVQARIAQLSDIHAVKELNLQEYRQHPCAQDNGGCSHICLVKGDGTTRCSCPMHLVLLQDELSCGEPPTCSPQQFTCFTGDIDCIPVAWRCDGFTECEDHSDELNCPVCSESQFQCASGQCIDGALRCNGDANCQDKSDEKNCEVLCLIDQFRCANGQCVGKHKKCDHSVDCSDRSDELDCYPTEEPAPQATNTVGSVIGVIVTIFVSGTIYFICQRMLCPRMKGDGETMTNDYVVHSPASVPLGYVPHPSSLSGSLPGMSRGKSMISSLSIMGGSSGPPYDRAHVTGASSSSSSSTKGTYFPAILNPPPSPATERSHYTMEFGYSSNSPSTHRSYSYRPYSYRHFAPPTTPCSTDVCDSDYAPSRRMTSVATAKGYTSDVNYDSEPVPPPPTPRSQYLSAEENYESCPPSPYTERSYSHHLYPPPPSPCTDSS

B1: BMP7 in human breast cancer PDX cells (ligand, UniProt P18075 293-431, looked up)
chain: STGSKQRSQNRSKTPKNQEALRMANVAENSSSDQRQACKKHELYVSFRDLGWQDWIIAPEGYAAYYCEGECAFPLNSYMNATNHAIVQTLVHFINPETVPKPCCAPTQLNAISVLYFDDSSNVILKKYRNMVVRACGCH
B1: the binding result in assay [1] is given as “binds”.

B2: BMP7 (R&D Systems 5666-BP) (ligand, mouse, UniProt P23359 292-430, looked up)
chain: STGGKQRSQNRSKTPKNQEALRMASVAENSSSDQRQACKKHELYVSFRDLGWQDWIIAPEGYAAYYCEGECAFPLNSYMNATNHAIVQTLVHFINPDTVPKPCCAPTQLNAISVLYFDDSSNVILKKYRNMVVRACGCH
In the case of B2, the binding result in assay [2] is reported as “binds”.

With PMIVSVKEGGRTRPQVVSLPNMRVQT [Lefty1 peptide PMIVSVKEGGRTRPQVVSLPNMRVQT], the binding result in assay [3] is listed as “binds”.

B3: LEFTY1 (recombinant mouse Lefty1 protein, R&D Systems, catalog number 994-LF) (ligand, UniProt Q64280 78-368, looked up)
chain: FSQNLREVAGRFLVSETSTHLLVFGMEQRLPPNSELVQAVLRLFQEPVPRTALRRQKRLSPHSARARVTIEWLRFRDDGSNRTALIDSRLVSIHESGWKAFDVTEAVNFWQQLSRPRQPLLLQVSVQREHLGPGTWSSHKLVRFAAQGTPDGKGQGEPQLELHTLDLKDYGAQGNCDPEAPVTEGTRCCRQEMYLDLQGMKWAENWILEPPGFLTYECVGSCLQLPESLTSRWPFLGPRQCVASEMTSLPMIVSVKEGGRTRPQVVSLPNMRVQTCSCASDGALIPRRLQP
notes: Added to cells at 200 ng/ml (co-IP, SMAD assays)
B3: the binding result in assay [2] is listed as “binds”; with LRP6, “no binding”.

In the case of B4, the binding result in assay [4], in assay [5] and in assay [6] was “binds” in each case.
